Measured values published in US20230012273A1 (Boehringer Ingelheim, published 2023).

T1: cynomolgus SIRPβ1v3 (XP_005568593) extracellular domain + His-tag (cynomolgus monkey)
T1 construct: SPR analyte; also called Cyno SIRPβ1v3 XP_005568593; cynoSIRPβ1v3; not shown: His-tag
T1 chain: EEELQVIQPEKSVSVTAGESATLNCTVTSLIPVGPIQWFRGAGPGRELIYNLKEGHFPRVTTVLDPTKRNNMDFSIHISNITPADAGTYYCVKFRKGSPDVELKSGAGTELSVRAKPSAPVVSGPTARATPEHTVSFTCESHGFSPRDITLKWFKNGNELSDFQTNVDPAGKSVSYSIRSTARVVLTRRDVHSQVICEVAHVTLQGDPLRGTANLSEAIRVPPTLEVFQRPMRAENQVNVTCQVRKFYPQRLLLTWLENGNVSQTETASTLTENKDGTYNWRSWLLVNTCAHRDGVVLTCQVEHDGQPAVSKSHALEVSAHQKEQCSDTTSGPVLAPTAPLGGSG

T2: cynomolgus SIRPα (EGM_02252) extracellular domain + His-tag (cynomolgus monkey)
T2 construct: SPR analyte; also called CySIRPα EGM_02252; cynoSIRPα; not shown: His-tag
T2 chain: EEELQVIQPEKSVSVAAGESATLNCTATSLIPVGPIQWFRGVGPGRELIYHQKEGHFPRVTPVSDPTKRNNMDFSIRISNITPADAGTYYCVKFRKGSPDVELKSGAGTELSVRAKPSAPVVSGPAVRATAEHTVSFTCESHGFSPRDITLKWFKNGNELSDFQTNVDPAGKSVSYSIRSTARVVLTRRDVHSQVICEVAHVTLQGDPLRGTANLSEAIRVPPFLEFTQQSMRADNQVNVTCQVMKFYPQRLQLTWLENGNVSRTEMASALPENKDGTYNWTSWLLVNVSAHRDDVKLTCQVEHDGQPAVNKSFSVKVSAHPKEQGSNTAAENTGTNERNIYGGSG

T3: cynomolgus SIRPβ1 (XP_005568598) extracellular domain + His-tag (cynomolgus monkey)
T3 construct: SPR analyte; also called Cyno SIRPβ1 XP_005568598; cynoSIRPβ1; not shown: His-tag
T3 chain: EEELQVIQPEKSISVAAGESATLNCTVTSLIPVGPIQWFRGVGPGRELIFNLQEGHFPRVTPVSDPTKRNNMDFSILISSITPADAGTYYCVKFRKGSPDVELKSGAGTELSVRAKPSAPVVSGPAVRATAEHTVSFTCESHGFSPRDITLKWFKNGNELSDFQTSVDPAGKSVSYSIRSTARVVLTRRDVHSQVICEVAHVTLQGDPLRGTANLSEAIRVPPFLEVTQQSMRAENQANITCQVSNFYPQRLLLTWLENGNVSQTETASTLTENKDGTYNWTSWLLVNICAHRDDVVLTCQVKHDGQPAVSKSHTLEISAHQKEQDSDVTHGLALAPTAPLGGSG

T4: cynomolgus SIRPγ (XP_005568591) extracellular domain + His-tag (cynomolgus monkey, UniProt Q9P1W8 29-359 (human entry))
T4 construct: SPR analyte; also called Cyno SIRPγ XP_005568591; cynoSIRPγ; not shown: His-tag
T4 chain: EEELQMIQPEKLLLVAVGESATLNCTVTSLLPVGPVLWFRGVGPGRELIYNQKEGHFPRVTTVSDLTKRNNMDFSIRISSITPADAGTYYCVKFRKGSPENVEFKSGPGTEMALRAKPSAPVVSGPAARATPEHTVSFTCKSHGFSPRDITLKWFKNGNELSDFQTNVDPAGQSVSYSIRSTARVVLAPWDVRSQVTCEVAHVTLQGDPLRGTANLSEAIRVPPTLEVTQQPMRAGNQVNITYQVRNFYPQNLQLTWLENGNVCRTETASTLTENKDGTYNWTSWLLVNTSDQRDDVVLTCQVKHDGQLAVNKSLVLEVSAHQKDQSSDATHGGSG

T5: cynoSIRPα (XP_015313155), Extracellular Domain + His-Tag (cynomolgus monkey)
T5 construct: also called CySIRPα XP_015313155; not shown: His-Tag
T5 chain: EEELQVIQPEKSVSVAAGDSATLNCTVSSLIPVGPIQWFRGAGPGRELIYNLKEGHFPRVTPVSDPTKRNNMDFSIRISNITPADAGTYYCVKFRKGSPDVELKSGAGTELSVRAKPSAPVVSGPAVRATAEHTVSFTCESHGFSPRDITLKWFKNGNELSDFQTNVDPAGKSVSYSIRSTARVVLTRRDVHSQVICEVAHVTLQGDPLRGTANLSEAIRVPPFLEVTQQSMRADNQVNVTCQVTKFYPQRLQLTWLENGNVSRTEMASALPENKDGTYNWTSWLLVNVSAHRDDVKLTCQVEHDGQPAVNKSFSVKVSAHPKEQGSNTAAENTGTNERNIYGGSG

T6: cynoSIRPα (NP_001271679), Extracellular Domain + His-Tag (cynomolgus monkey)
T6 construct: also called CySIRPα NP_001271679; not shown: His-Tag
T6 chain: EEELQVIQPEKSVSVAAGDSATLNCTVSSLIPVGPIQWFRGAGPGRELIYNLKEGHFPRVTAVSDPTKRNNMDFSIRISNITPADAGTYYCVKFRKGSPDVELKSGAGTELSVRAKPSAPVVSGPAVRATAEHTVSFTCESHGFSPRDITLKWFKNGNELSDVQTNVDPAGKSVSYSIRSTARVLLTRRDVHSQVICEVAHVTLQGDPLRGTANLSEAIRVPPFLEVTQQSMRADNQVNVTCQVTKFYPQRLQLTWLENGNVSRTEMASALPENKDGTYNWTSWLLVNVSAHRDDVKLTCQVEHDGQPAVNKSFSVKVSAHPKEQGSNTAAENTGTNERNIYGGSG

T7: cynoSIRPα (EGM_02252), Extracellular Domain + His-Tag (cynomolgus monkey)
T7 construct: also called CySIRPα EGM_02252; not shown: His-Tag
T7 chain: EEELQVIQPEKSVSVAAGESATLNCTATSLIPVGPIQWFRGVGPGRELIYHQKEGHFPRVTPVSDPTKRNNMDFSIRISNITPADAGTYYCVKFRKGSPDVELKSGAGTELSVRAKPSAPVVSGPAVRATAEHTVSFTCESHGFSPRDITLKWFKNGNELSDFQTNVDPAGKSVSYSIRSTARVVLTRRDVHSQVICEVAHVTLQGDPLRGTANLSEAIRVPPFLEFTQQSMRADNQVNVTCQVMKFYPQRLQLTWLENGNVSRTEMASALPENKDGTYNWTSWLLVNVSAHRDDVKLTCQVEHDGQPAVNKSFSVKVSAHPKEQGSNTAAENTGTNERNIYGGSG


Assays:
[1] = target: T1, cynomolgus SIRPβ1v3 (XP_005568593) …; assay: SPR, antibody captured, ECD-His analyte
Method: (§1) The binding affinity of anti-SIRPα antibodies to the various SIRPα analytes is determined by surface plasmon resonance (SPR) using a ProteOn XPR36 (Bio-Rad). The running buffer for this experiment and all dilutions (except where stated) are done in 1×HBS-EP+. […] The sensorchip is deactivated with 1M ethanolamine HCl for 420 sec at a flowrate of 10 μl/min.
(§2) The analyte is injected over the captured antibody for 300 sec at a flowrate of 30 μl/min. The dissociation is done for 600 sec. Two-fold serial dilutions of each SIRP protein (Extracellular Domain+His-Tag) are injected as analyte with the highest concentrations indicated in table 36 below.

[2] = target: T2, cynomolgus SIRPα (EGM_02252) …; assay: SPR
Method: as §1, §2

[3] = target: T3, cynomolgus SIRPβ1 (XP_005568598) …; assay: SPR
Method: as §1, §2

[4] = target: T4, cynomolgus SIRPγ (XP_005568591) …; assay: SPR
Method: as §1, §2

[5] = target: T8, Human SIRPαV2 (CAA71403.1), Extracellular Domain + His-Tag (human, UniProt P78324 31-373); assay: SPR, antibody captured on Protein A/G, ECD-His analyte, 1:1 fit
T8 construct: also called huSIRPαV2; hSIRPαV2; not shown: His-Tag
Method: (§3) The binding kinetics of anti-SIRPα antibodies to various SIRPα analytes are determined by surface plasmon resonance (SPR) using a Biacore 8K+(Cytiva). 1×HBS-EP+(Cytiva) is used as running buffer and for all the dilutions unless stated otherwise. The Series S CM5 sensorchip is activated with a 1:1 mixture of 0.1 M NHS (N-hydroxysuccinimide) and 0.4 M EDC (1-Ethyl-3-(3-dimethylaminopropyl) carbodiimide hydrochloride) for 420 seconds at a flow rate of 10 μl/min and immobilized with Protein A/G (Thermo Scientific, 10 μg/ml in 10 mM acetate pH 4.5) for 420 seconds at a flowrate of 10 μl/min resulting in approximately 3000 RU of Protein A/G on the surface. The sensorchip is then deactivated with 1 M ethanolamine HCl pH 8.5 for 420 seconds at a flowrate of 10 μl/min.
(§4) Antibodies (approximately 1 ug/ml) are captured on the Protein A/G surface for 60 seconds at a flowrate of 10 μl/min resulting in capture levels of approximately 240 RU. Dilutions of each SIRP protein (Extracellular Domain+His-Tag, with the concentrations as indicated) are injected as analytes over the captured antibody for 300 seconds of association at a flowrate of 30 μl/min, followed by a dissociation for 600 seconds.
(§5) The above procedures are used to measure binding properties of antibodies of the present disclosure. For each analyte used, the highest concentration was as indicated in Example 3 (see Table 36).

[6] = target: T9, Human SIRPαV1 (NP_542970.1), Extracellular Domain + His-Tag (human, UniProt P78324 31-373); assay: as above
T9 construct: also called huSIRPαV1; hSIRPαV1; not shown: His-Tag
Method: as §3, §4, §5

[7] = target: T5, cynoSIRPα (XP_015313155), Extracellular …; assay: as above
Method: as §3, §4, §5

[8] = target: T6, cynoSIRPα (NP_001271679), Extracellular …; assay: as above
Method: as §3, §4, §5

[9] = target: T7, cynoSIRPα (EGM_02252), Extracellular …; assay: SPR, antibody captured on Protein A/G, ECD-His analyte
Method: as §3, §4

T8 sequence (P78324 other isoform, or with tags, fused parts or gaps): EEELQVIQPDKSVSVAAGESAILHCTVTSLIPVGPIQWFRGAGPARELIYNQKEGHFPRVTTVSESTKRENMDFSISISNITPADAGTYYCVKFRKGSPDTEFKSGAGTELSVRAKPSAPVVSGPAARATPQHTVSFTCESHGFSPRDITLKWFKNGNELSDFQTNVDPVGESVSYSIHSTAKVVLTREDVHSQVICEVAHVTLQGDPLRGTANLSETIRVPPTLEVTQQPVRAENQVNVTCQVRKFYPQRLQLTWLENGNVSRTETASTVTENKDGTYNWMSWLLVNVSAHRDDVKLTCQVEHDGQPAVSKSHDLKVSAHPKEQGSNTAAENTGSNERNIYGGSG
T9 sequence (P78324 other isoform, or with tags, fused parts or gaps): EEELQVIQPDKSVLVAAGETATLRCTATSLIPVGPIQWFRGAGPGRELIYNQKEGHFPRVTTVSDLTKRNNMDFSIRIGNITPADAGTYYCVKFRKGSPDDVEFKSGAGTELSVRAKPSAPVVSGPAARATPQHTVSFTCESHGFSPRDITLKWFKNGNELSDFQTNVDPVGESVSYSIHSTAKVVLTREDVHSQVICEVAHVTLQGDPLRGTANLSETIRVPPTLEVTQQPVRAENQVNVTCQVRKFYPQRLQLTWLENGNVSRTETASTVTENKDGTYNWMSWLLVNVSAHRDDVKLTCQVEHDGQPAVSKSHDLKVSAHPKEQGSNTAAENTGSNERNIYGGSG

Row | Binder | Kd [1] [nM] | binding result [2] | binding result [3] | binding result [4] | Kd [5] [nM] | koff [5] [s⁻¹] | kon [5] [M⁻¹ s⁻¹] | Kd [6] [nM] | koff [6] [s⁻¹] | kon [6] [M⁻¹ s⁻¹] | Kd [7] [nM] | koff [7] [s⁻¹] | kon [7] [M⁻¹ s⁻¹] | Kd [8] [nM] | koff [8] [s⁻¹] | kon [8] [M⁻¹ s⁻¹] | binding result [9]
1 | Antibody E21 (antibody, human IgG1, kappa, L234A L235A, V domains shown) VH: QVQLQESGPGLVRPSETLSLTCTVSGGSIRNYYWSWIRQPPGKGLEWIGFIYYTGRTFYNPSLKSRVTISLDMSKNQFSLKMTSVTAADTAVYYCARVRAYSGIGLDGTDVWGQGTTVTVSS VL: DIVMTQSPLSLPVTPGEPASISCKSSQSLLYSNAYNYLDWYLQRPGQSPQLLIYLGSNRASGVPDRFSGSGSGTDFTLKISRVEAEDVGVYYCMQALQTPLTFGGGTKVEIKR | 56.5 | no binding (tested: 1000 nM) | no binding (tested: 1000 nM) | no binding (tested: 1000 nM) | – | – | – | – | – | – | – | – | – | – | – | – | –
2 | Antibody E1 (antibody, human IgG1, kappa, L234A L235A, V domains shown) VH: QVQLQESGPGLVRPSETLSLTCTVSGGSIRNYYWSWIRQPPGKGLEWIGFIYYNGRTFYNPSLKSRVTISLDMSINQFSLKMTSVTAADTAVYYCARVRAYSGIGLDGTDVWGQGTTVTVSS VL: DIVMTQSPLSLPVTPGEPASISCKSSQSLLYSNGYAYLDWYLQRPGQSPQLLIYQGSNRASGVPDRFSGSGSGTDFTLKISRVEAEDVGVFYCMQALQTPLTFGGGTKVEIKR | – | – | – | – | 0.63 | 0.00033 | 523000 | 0.72 | 0.000299 | 414000 | 16.7 | 0.00317 | 190000 | 17.9 | 0.00327 | 183000 | no binding (tested: 1000 nM)
3 | Antibody E2 (antibody, human IgG1, kappa, L234A L235A, V domains shown) VH: QVQLQESGPGLVRPSETLSLTCTVSGGSIRNYYWSWIRQPPGKGLEWIGFIYYNGRTFYNPSLKSRVTISLDMSINQFSLKMTSVTAADTAVYYCARVRAYSGIGLDGTDVWGQGTTVTVSS VL: DIVMTQSPLSLPVTPGEPASISCKSSQSLLYSNGYAYLDWYLQRPGQSPQLLIYLGSNRASGVPDRFSGSGSGTDFTLKISRVEAEDVGVYYCMQALQTPLTFGGGTKVEIKR | – | – | – | – | 0.69 | 0.000367 | 535000 | 0.91 | 0.000419 | 459000 | 19.7 | 0.00512 | 260000 | 20.7 | 0.00526 | 254000 | no binding (tested: 1000 nM)
4 | Antibody E3 (antibody, human IgG1, kappa, L234A L235A, V domains shown) VH: QVQLQESGPGLVRPSETLSLTCTVSGGSIRNYYWSWIRQPPGKGLEWIGFIYYNGRTFYNPSLKSRVTISLDMSKNQFSLKMTSVTAADTAVYYCARVRAYSGIGLDGTDVWGQGTTVTVSS VL: DIVMTQSPLSLPVTPGEPASISCKSSQSLLYSNGYAYLDWYLQRPGQSPQLLIYQGSNRASGVPDRFSGSGSGTDFTLKISRVEAEDVGVFYCMQALQTPLTFGGGTKVEIKR | – | – | – | – | 0.78 | 0.000366 | 472000 | 0.96 | 0.000371 | 385000 | 16.9 | 0.00288 | 170000 | 17.3 | 0.00291 | 168000 | no binding (tested: 1000 nM)
5 | Antibody E4 (antibody, human IgG1, kappa, L234A L235A, V domains shown) VH: QVQLQESGPGLVRPSETLSLTCTVSGGSIRNYYWSWIRQPPGKGLEWIGFIYYNGRTFYNPSLKSRVTISLDMSKNQFSLKMTSVTAADTAVYYCARVRAYSGIGLDGTDVWGQGTTVTVSS VL: DIVMTQSPLSLPVTPGEPASISCKSSQSLLYSNGYAYLDWYLQRPGQSPQLLIYLGSNRASGVPDRFSGSGSGTDFTLKISRVEAEDVGVYYCMQALQTPLTFGGGTKVEIKR | 13.1 | no binding (tested: 1000 nM) | no binding (tested: 1000 nM) | no binding (tested: 1000 nM) | – | – | – | – | – | – | – | – | – | – | – | – | –
